B1: CPEB3 Ribozyme (parent)
chain: GGGGGCCACAGCAGAAGCGUUCACGUCGCGGCCCCUGUCAGAUUCUGGUGAAUCUGCGAAUUCUGCUGU

Variants of: B1
Experiment: self-cleavage, relative activity (ratio to wild type); higher = more cleavage; co-transcriptional

**Q.** For GGGGGCCACAGCAGAAGCGUUCACGUCGCGGCCCCUGUCAGAUUCUAGUGAAUCUGUGAAUUCUGCUGU, which self-cleavage is on record?
**A.** The self-cleavage was 0.321.

**Q.** With GGGGGCCACAGCAGAAGCGUUCACGUCGCGGCCCCUGUCAGAUUCUAGUGAAUCUGAGAAUUCUGCUGU as the variant, how does the self-cleavage read?
**A.** Its self-cleavage is 0.347.

**Q.** For GGGGGCCACAGCAGAAGCGUUCACGUCGCGGCCCCUGUCAGAUUCGGGUGAAUCUCCGAAUUCUGCUGU, which self-cleavage is on record?
**A.** Its self-cleavage is 0.65.

**Q.** Which self-cleavage does the source give for GGGGGCCACAGCAGAAGCGUUCACGUCGCGGCCCCUGUCAGAUUCGGGUGAAUCUUCGAAUUCUGCUGU here?
**A.** The self-cleavage was 0.959.

**Q.** With GGGGGCCACAGCAGAAGCGUUCACGUCGCGGCCCCUGUCAGAUUCGGGUGAAUCUGUGAAUUCUGCUGU as the variant, how does the self-cleavage read?
**A.** Its self-cleavage is 0.391.

**Q.** With GGGGGCCACAGCAGAAGCGUUCACGUCGCGGCCCCUGUCAGAUUCGGGUGAAUCUGAGAAUUCUGCUGU as the variant, how does the self-cleavage read?
**A.** Its self-cleavage is 0.354.

**Q.** For GGGGGCCACAGCAGAAGCGUUCACGUCGCGGCCCCUGUCAGAUUCGGGUGAAUCUGGGAAUUCUGCUGU, which self-cleavage is on record?
**A.** Its self-cleavage is 0.303.

**Q.** With GGGGGCCACAGCAGAAGCGUUCACGUCGCGGCCCCUGUCAGAUUCGGGUGAAUCUGCGAAUUUUGCUGU as the variant, how does the self-cleavage read?
**A.** The self-cleavage was 1.03.

**Q.** Which self-cleavage does the source give for GGGGGCCACAGCAGAAGCGUUCACGUCGCGGCCCCUGUCAGAUUCGGGUGAAUCUGCGAAUUAUGCUGU here?
**A.** Its self-cleavage is 0.869.

**Q.** For GGGGGCCACAGCAGAAGCGUUCACGUCGCGGCCCCUGUCAGAUUCCGGUGAAUCUGCGAAUUCGGCUGU, which self-cleavage is on record?
**A.** Its self-cleavage is 0.852.

**Q.** With GGGGGCCACAGCAGAAGCGUUCACGUCGCGGCCCCUGUCAGAUUCCGGUGAAUCUGCGAAUUCCGCUGU as the variant, how does the self-cleavage read?
**A.** The self-cleavage was 0.936.

**Q.** For GGGGGCCACAGCAGAAGCGUUCACGUCGCGGCCCCUGUCAGAUUCUAGUGUAUCUGCGAAUUCUGCUGU, which self-cleavage is on record?
**A.** The self-cleavage was 0.953.

**Q.** Which self-cleavage does the source give for GGGGGCCACAGCAGAAGCGUUCACGUCGCGGCCCCUGUCAGAUUCUAGUGGAUCUGCGAAUUCUGCUGU here?
**A.** Its self-cleavage is 1.02.

**Q.** For GGGGGCCACAGCAGAAGCGUUCACGUCGCGGCCCCUGUCAGAUUCGCGUGAAUCUGCGAAUUCUGCUGU, which self-cleavage is on record?
**A.** Its self-cleavage is 1.02.

**Q.** Which self-cleavage does the source give for GGGGGCCACAGCAGAAGCGUUCACGUCGCGGCCCCUGUCAGAUUCGAGUGAAUCUGCGAAUUCUGCUGU here?
**A.** The self-cleavage was 1.02.

**Q.** Which self-cleavage does the source give for GGGGGCCACAGCAGAAGCGUUCACGUCGCGGCCCCUGUCAGAUUCGUGUGAAUCUGCGAAUUCUGCUGU here?
**A.** The self-cleavage was 0.976.

**Q.** For GGGGGCCACAGCAGAAGCGUUCACGUCGCGGCCCCUGUCAGAUUCGGGUGAAUCUGCGAGUUCUGCUGU, which self-cleavage is on record?
**A.** The self-cleavage was 0.952.

**Q.** With GGGGGCCACAGCAGAAGCGUUCACGUCGCGGCCCCUGUCAGAUUCGGGUGAAUCUGCGAUUUCUGCUGU as the variant, how does the self-cleavage read?
**A.** The self-cleavage was 0.413.

**Q.** Which self-cleavage does the source give for GGGGGCCACAGCAGAAGCGUUCACGUCGCGGCCCCUGUCAGAUUCGGGUGAAUCUGCGACUUCUGCUGU here?
**A.** The self-cleavage was 0.413.

**Q.** For GGGGGCCACAGCAGAAGCGUUCACGUCGCGGCCCCUGUCAGAUUCGGGUGAAUCUGCGAAUGCUGCUGU, which self-cleavage is on record?
**A.** Its self-cleavage is 0.877.

**Q.** With GGGGGCCACAGCAGAAGCGUUCACGUCGCGGCCCCUGUCAGAUUCGGGUGAAUCUGCGAAUCCUGCUGU as the variant, how does the self-cleavage read?
**A.** Its self-cleavage is 0.993.

**Q.** For GGGGGCCACAGCAGAAGCGUUCACGUCGCGGCCCCUGUCAGAUUCGGGUGAAUCUGCGAAUACUGCUGU, which self-cleavage is on record?
**A.** The self-cleavage was 0.948.

**Q.** Which self-cleavage does the source give for GGGGGCCACAGCAGAAGCGUUCACGUCGCGGCCCCUGUCAGAUUCGGGUGAAGCUGCGAAUUCUGCUGU here?
**A.** Its self-cleavage is 0.918.

**Q.** With GGGGGCCACAGCAGAAGCGUUCACGUCGCGGCCCCUGUCAGAUUCGGGUGAAACUGCGAAUUCUGCUGU as the variant, how does the self-cleavage read?
**A.** The self-cleavage was 1.01.

**Q.** For GGGGGCCACAGCAGAAGCGUUCACGUCGCGGCCCCUGUCAGAUUCGGGUGAACCUGCGAAUUCUGCUGU, which self-cleavage is on record?
**A.** Its self-cleavage is 0.978.

**Q.** With GGGGGCCACAGCAGAAGCGUUCACGUCGCGGCCCCUGUCAGAUUCUACUGAAUCUGCGAAUUCUGCUGU as the variant, how does the self-cleavage read?
**A.** Its self-cleavage is 1.03.

**Q.** Which self-cleavage does the source give for GGGGGCCACAGCAGAAGCGUUCACGUCGCGGCCCCUGUCAGAUUCUAAUGAAUCUGCGAAUUCUGCUGU here?
**A.** The self-cleavage was 1.03.

**Q.** For GGGGGCCACAGCAGAAGCGUUCACGUCGCGGCCCCUGUCAGAUUCUAGUGAAUCUGCAAAUUCUGCUGU, which self-cleavage is on record?
**A.** The self-cleavage was 0.96.

**Q.** With GGGGGCCACAGCAGAAGCGUUCACGUCGCGGCCCCUGUCAGAUUCUAGUGAAUCUGCCAAUUCUGCUGU as the variant, how does the self-cleavage read?
**A.** Its self-cleavage is 0.951.

**Q.** For GGGGGCCACAGCAGAAGCGUUCACGUCGCGGCCCCUGUCAGAUUCGGGUGAAUCUGCGAAGUCUGCUGU, which self-cleavage is on record?
**A.** Its self-cleavage is 0.878.

**Q.** With GGGGGCCACAGCAGAAGCGUUCACGUCGCGGCCCCUGUCAGAUUCGGGUGAAUCUGCGAAAUCUGCUGU as the variant, how does the self-cleavage read?
**A.** Its self-cleavage is 0.958.

**Q.** With GGGGGCCACAGCAGAAGCGUUCACGUCGCGGCCCCUGUCAGAUUCGGGUGAAUCUGCGAACUCUGCUGU as the variant, how does the self-cleavage read?
**A.** The self-cleavage was 0.941.

**Q.** With GGGGGCCACAGCAGAAGCGUUCACGUCGCGGCCCCUGUCAGAUUCCGGUGAAUCUGCGAAUUCUGCUGG as the variant, how does the self-cleavage read?
**A.** Its self-cleavage is 1.05.

**Q.** For GGGGGCCACAGCAGAAGCGUUCACGUCGCGGCCCCUGUCAGAUUCCGGUGAAUCUGCGAAUUCUGCUGC, which self-cleavage is on record?
**A.** The self-cleavage was 1.06.

**Q.** With GGGGGCCACAGCAGAAGCGUUCACGUCGCGGCCCCUGUCAGAUUCCGGUGAAUCUGCGAAUUCUGCUGA as the variant, how does the self-cleavage read?
**A.** Its self-cleavage is 0.997.

**Q.** Which self-cleavage does the source give for GGGGGCCACAGCAGAAGCGUUCACGUCGCGGCCCCUGUCAGAUUCGGGUGAAUCUGCGAAUUCUGCAGU here?
**A.** Its self-cleavage is 0.99.

**Q.** With GGGGGCCACAGCAGAAGCGUUCACGUCGCGGCCCCUGUCAGAUUCGGGUGAAUCUGCGAAUUCUGCGGU as the variant, how does the self-cleavage read?
**A.** The self-cleavage was 0.995.

**Q.** With GGGGGCCACAGCAGAAGCGUUCACGUCGCGGCCCCUGUCAGAUUCGGGUGAAUCUGCGGAUUCUGCUGU as the variant, how does the self-cleavage read?
**A.** The self-cleavage was 0.965.

**Q.** For GGGGGCCACAGCAGAAGCGUUCACGUCGCGGCCCCUGUCAGAUUCGGGUGAAUCUGCGUAUUCUGCUGU, which self-cleavage is on record?
**A.** Its self-cleavage is 0.842.
